According to patent publication US20080241867:

Test system: hybrid GFP construct containing the protease cleavage sequence SVPSGCG (SEQ ID NO:21) followed by histidine residues

## Pepsin
  Micrograms of GFP Released by Protease (overnight, IMAC beads, pH 8.0): 0 µg

## Crude Bromelain
  Micrograms of GFP Released by Protease (overnight, IMAC beads): 86 µg

## Chymotrypsin
  % GFP Released (60 minutes, 37° C.): 11%
  Micrograms of GFP Released by Protease (overnight, IMAC beads): 47 µg
  µg GFP Released by Protease (60 minutes, 37° C.): 10.6 µg

## Trypsin
  % GFP Released (60 minutes, 37° C.): 4.6%
  Micrograms of GFP Released by Protease (overnight, IMAC beads); Trypsin (Sample 1): 9 µg
  Micrograms of GFP Released by Protease (overnight, IMAC beads); Trypsin (Sample 2): 56 µg
  µg GFP Released by Protease (60 minutes, 37° C.): 4.07 µg

## Elastase
  Micrograms of GFP Released by Protease (overnight, IMAC beads): 94 µg
  release of GFP from beads, worded: The most effective enzyme was elastase, with positive results apparent within five minutes after adding the enzyme
